# Experimental data reported in US20220409696A1, “Heparin-Associated Polypeptides and Uses Thereof” (Juvena Therapeutics, Inc., priority 2021, published 2022).
# B1: BMP7: factor BMP7 added at 50 ng/mL to DM1 human myoblasts (protein, UniProt P18075 293-431, looked up)
# Bone morphogenetic protein 7: STGSKQRSQNRSKTPKNQEALRMANVAENSSSDQRQACKKHELYVSFRDLGWQDWIIAPEGYAAYYCEGECAFPLNSYMNATNHAIVQTLVHFINPETVPKPCCAPTQLNAISVLYFDDSSNVILKKYRNMVVRACGCH
# Tested on: DM1 human myoblast
# Assay: Gene expression fold change in DM1 human myoblast
# Assay type: cell-based
# Conditions: 48 h; BMP7 50 ng/mL, Butyrate 100 nM, IGF2 200 ng/mL
# Experimental: Myoblasts were cultured 48 h in the presence of factors (BMP7 50 ng/mL, Butyrate 100 nM, IGF2 200 ng/mL).
# Myoblasts were cultured 96 h in the presence of factors (IGF2 200 ng/mL). […] Myoblasts were cultured 48 h in the presence of factors (IGF2 200 ng/mL).
# RNA was isolated from each well (RNeasy Mini Kit, Qiagen) and cDNA was obtained by reverse-transcription (High Capacity Reverse Transcription Kit, Thermo Fisher Scientific). Real-time quantitative PCR was performed using QuantStudio3 (Thermo Fisher).
# IGF2 was tested individually for its ability to promote proliferation and/or fusion of human muscle progenitor cells from an individual with myotonic dystrophy type 1 (hMD)—a muscular dystrophy caused by mutations in the DMPK1 gene. The effect of IGF2 on myogenic activity was assayed in biological triplicate across a range of concentrations centered around expected physiological levels by adding each factor to hMD myoblasts for 72 hours with daily media changes (DMEM+2% horse serum) and a second pulse of factors at the first media change. After 72 or 96 hours, cells were pulsed for 2-5 hours with EdU (30 uM), ethanol fixed, stained with Hoescht 3342, immunostained for proliferation—as measured by the percent of cells staining positive for EdU (% EdU)-, and immunostained for differentiation—as measured by the increase in cellular area staining positive for embryonic myosin heavy chain (% eMyHC) relative to the negative controls, which received media and vehicle only. Wells were imaged on a Keyence BZ-100 at 4×, the images quantified in Cell Profiler, and the statistics were computed in R. Additionally, RNA was extracted from myoblast and select transcript abundances quantified by qPCR.
molecule,measurement,value
B1,MYF5 myogenic gene expression fold change compared to FM (vehicle),0.709
same,MYODI myogenic gene expression fold change compared to FM (vehicle),0.709
same,MYOG myogenic gene expression fold change compared to FM (vehicle),0.361
